Measured values: the supplement of paper PMC9170038

System: MS2 coat protein
Experiment: apparent KD of MS2 coat protein; designed switch direction (-1 OFF switch, 1 ON switch): -1; higher = weaker reporter binding
Procedure, shortened: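 RNA switches sharing common flanks were transcribed by stalled E. coli RNA polymerase on Illumina chips. A doubling series of SNAP-549-labelled MS2 coat protein, from 0.7 or 1.5 nM to 3 µM, was applied in Tris-HCl pH 7.5 buffer with KCl, MgCl2, BSA, DTT, tRNA and Tween-20. Each step lasted 0.8–1.5 h at the bottom of the series and 10–20 min at the top. Normalised cluster fluorescence was curve-fitted, giving apparent KD as the per-design median over clusters.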

[1] = Eterna round: R95, input ligand: microRNA oligo, concentration not stated
[2] = input ligand: microRNA oligo, concentration not stated
[3] = Eterna round: R95, input ligand: FMN 200 uM
[4] = Eterna round: R95, input ligand: none

GUAAACGAAGAGGAUAUUUGAUAUCAAAGCUUCAAAGAAGGCUUCACAUGAGGAUCACCCAUGUGAUCUUCAAG [Mat - Exclusion 6 - JL Mod - D17] (Eterna round: R97, puzzle: Exclusion 6)
apparent KD of MS2 coat protein (input ligand: FMN 200 uM): 0.404 µM | apparent KD of MS2 coat protein (input ligand: none): 0.0284 µM

GUAAAGUGAGGAUAUGGUAAUUUAAUUAUUAAUUAAUUAAUCCAGAAGGCACAUGAGGAUCACCCAUGUAAAGG [Mat - Exclusion 4 - D93] (puzzle: Exclusion 4)
apparent KD of MS2 coat protein [1]: 0.0346 µM

GUAAUUAAUGUAGGAUAUGCAAGGCGAAACAUGAGAGAAGGCCAUGUGGAUCACCCAUGUAAUGCGGUCUGCGUACAGAUCGCU [salish99_ExNG1_r4_003] (Eterna round: R96, puzzle: Exclusion NG 1)
apparent KD of MS2 coat protein (input ligand: FMN 200 uM): 0.038 µM | apparent KD of MS2 coat protein [2]: 0.0161 µM | apparent KD of MS2 coat protein (input ligand: none): 0.0655 µM

GUAAUUAAUGUAGGAUAUGCAAGGCGAACCUAAGCAGAAGGACAUGUGGAUCACCCAUGUAAACAUGAGGAUCACCCAUGUGCU [salish99_ExNG1_r4_006] (Eterna round: R96, puzzle: Exclusion NG 1)
apparent KD of MS2 coat protein (input ligand: FMN 200 uM): 1.32 µM | apparent KD of MS2 coat protein [2]: 1.34 µM | apparent KD of MS2 coat protein (input ligand: none): 4.27 µM

GUAAUUAUAUAGGAUAUCGAAAGUAUAAUUUAACGAGAAGGAUGAACAUGAGGAUCACCCAUGUGGUAUCAUGG [JL-ex6-3.08] (puzzle: Exclusion 6)
apparent KD of MS2 coat protein [3]: 0.0664 µM | apparent KD of MS2 coat protein [1]: 0.321 µM | apparent KD of MS2 coat protein [4]: 0.219 µM

GUACGAGCCAAACACGUGGACAUGAGGAUCACCCAUGUGUCACCGGAUCCAUAGAGCUCGUCUUACCGACAAAAGCU [Eternabot (Original) Solution 17] (Eterna round: R97, puzzle: Sensor, turn-off variant 1)
apparent KD of MS2 coat protein (input ligand: FMN 200 uM): 0.0289 µM | apparent KD of MS2 coat protein (input ligand: none): 0.0316 µM

GUACGGUAAGGAUAUUGGAGGCCAAAGCACGAGUAGUACUCUAAGAAGGUACAUGAGGAUCACCCAUGUACGAG [Eternabot (L2) Solution 63] (Eterna round: R97, puzzle: Exclusion 4)
apparent KD of MS2 coat protein (input ligand: FMN 200 uM): 0.0188 µM | apparent KD of MS2 coat protein (input ligand: none): 0.0169 µM

GUAGAGUCAGGAUAUACGAGAUCGAAAGAUCGGCGGUCCAUACAUGAGGAUCACCCAUGUAGAAGGGACUCUAC [Omei mod 5 to Eli's favorate candidate (ch.parushev)] (Eterna round: R97, puzzle: Exclusion 2)
apparent KD of MS2 coat protein (input ligand: FMN 200 uM): 0.115 µM | apparent KD of MS2 coat protein (input ligand: none): 0.0183 µM

GUAGAGUGAGGAUAUACGAGAUCGAAAGAUCGGCGAUCCAAACAUGAGGAUCACCCAUGUAGAAGGCACUCUAC [Eli x2 4.006] (Eterna round: R97, puzzle: Exclusion 2)
apparent KD of MS2 coat protein (input ligand: FMN 200 uM): 0.202 µM | apparent KD of MS2 coat protein (input ligand: none): 0.14 µM

GUAGAUCGAGUUAGGAUAUGAUUACUAUCCGAAAAUCAGAAGGAACUUGAGGAUCACCCAAGUAUAGAUGAUAU [JR_BMEx4_Sub053] (Eterna round: R97, puzzle: Brourd's mod of Exclusion 4)
apparent KD of MS2 coat protein (input ligand: FMN 200 uM): 0.0217 µM | apparent KD of MS2 coat protein (input ligand: none): 0.0169 µM

GUAUAAUGAGUCAGGAUAUUGAUGACGCUAGGACACAAGAAGGGACAUGAGGAUCACCCAUGUUAUUAUGCGGU [Eternabot (L2) Solution 29] (Eterna round: R97, puzzle: Brourd's mod of Exclusion 4)
apparent KD of MS2 coat protein (input ligand: FMN 200 uM): 0.0882 µM | apparent KD of MS2 coat protein (input ligand: none): 0.0639 µM

GUAUAGUGAGGAUAUAUAUGCAGUAAACCUCAAAAGAUCGAACUUGAGGAUCACCCAAGUAGAAGGCGCGAGAU [JR_Ex2_Sub052] (Eterna round: R97, puzzle: Exclusion 2)
apparent KD of MS2 coat protein (input ligand: FMN 200 uM): 0.0245 µM | apparent KD of MS2 coat protein (input ligand: none): 0.0304 µM

GUAUAUAGUGUGAGGAUAUGCUGGUCCUUGGAUCAGCAGAAGGCACAUGAGGAUCACCCAUGUAGUUAAAUAUA [Mat - Exclusion 4 - JL Mod - D20] (puzzle: Brourd's mod of Exclusion 4)
apparent KD of MS2 coat protein [1]: 0.0301 µM

GUAUAUAGUGUGAGGAUAUGCUGGUCCUUGGAUCAGCAGAAGGCACAUGAGGAUCACCCAUGUAGUUUAUUUUG [Mat - Exclusion 4 - JL Mod - D7] (puzzle: Brourd's mod of Exclusion 4)
apparent KD of MS2 coat protein [1]: 0.0162 µM

GUAUCGUGAGGAUAUCUAGACUGACUUAGUACAUGUCAGCUGGAGAAGGCACAUGAGGAUCACCCAUGUGAUUA (puzzle: Exclusion 4)
apparent KD of MS2 coat protein [1]: 0.0222 µM

GUCAGCUCGUCAGGAUAUACAUCACUGCUUCGGCAGUGUAUUAAGAUCACAUGAGGAUCACCCAUGUAGAAGGGACGAGCUGAC [ENG2/2-B1] (Eterna round: R96, puzzle: Exclusion NG 2)
apparent KD of MS2 coat protein (input ligand: FMN 200 uM): 0.269 µM | apparent KD of MS2 coat protein [2]: 0.0212 µM | apparent KD of MS2 coat protein (input ligand: none): 0.0219 µM

GUCAGCUCGUCAGGAUAUAUAUUAACAUGAGGAUCACCCAUGUAAGAUCAGCUUCGGCAGUUAAUAUAGAAGGGACGAGCUGAC [ENG2/14-B1] (Eterna round: R96, puzzle: Exclusion NG 2)
apparent KD of MS2 coat protein (input ligand: FMN 200 uM): 0.181 µM | apparent KD of MS2 coat protein [2]: 0.154 µM | apparent KD of MS2 coat protein (input ligand: none): 0.153 µM

GUCAGCUCGUGAGGAUAUACAUGAUAGAUCGAUUAAUUAAUUAAUUUAACAUGAGGAUCACCCAUGUAGAAGGCACGAGCUGAC [ENG2/1-A1] (Eterna round: R96, puzzle: Exclusion NG 2)
apparent KD of MS2 coat protein [2]: 0.0309 µM

GUCAGCUCGUGAGGAUAUACAUGAUAGAUCGAUUAAUUAAUUAAUUUAACAUGAGGAUCACCCAUGUAGAAGGCACGAGCUGAU [ENG2/1-A2] (Eterna round: R96, puzzle: Exclusion NG 2)
apparent KD of MS2 coat protein [2]: 0.0358 µM

GUCAGCUCGUGAGGAUAUGAACAUGAGGAUCACCCAUGUAAGAUCAAGCUGCUUCGGCAGCAAGUUCAGAAGGUACGAGCUGAC [ENG2/10-C1] (Eterna round: R96, puzzle: Exclusion NG 2)
apparent KD of MS2 coat protein (input ligand: FMN 200 uM): 0.15 µM | apparent KD of MS2 coat protein [2]: 0.0775 µM | apparent KD of MS2 coat protein (input ligand: none): 0.13 µM

GUCAGCUCGUGAGGAUAUGCACAUGAGGAUCACCCAUGUAAGAUCAAGCUGCUUCGGCAGCAAGUGCAGAAGGCACGAGCUGAC [ENG2/9-A1] (Eterna round: R96, puzzle: Exclusion NG 2)
apparent KD of MS2 coat protein (input ligand: FMN 200 uM): 0.137 µM | apparent KD of MS2 coat protein [2]: 0.138 µM | apparent KD of MS2 coat protein (input ligand: none): 0.303 µM

GUCAGCUCGUGAGGAUAUGUAUAUACAUGAGGAUCACCCAUGUUAGAUCUGCUUCGGCUGUAUAUACAGAAGGCACGAGCUGAC [ENG2/16-A1] (Eterna round: R96, puzzle: Exclusion NG 2)
apparent KD of MS2 coat protein (input ligand: FMN 200 uM): 0.504 µM | apparent KD of MS2 coat protein [2]: 0.382 µM | apparent KD of MS2 coat protein (input ligand: none): 0.308 µM

GUCAUCACACAUGGGAUCAACAUGAGGAUCACCCAUGUUGCCAAGCCGUUUGCACGUCUUAUCAUACGUUUUUCGAU [Mod-Jxj] (Eterna round: R97, puzzle: Sensor, turn-off variant 1)
apparent KD of MS2 coat protein (input ligand: FMN 200 uM): 0.0902 µM | apparent KD of MS2 coat protein (input ligand: none): 0.0998 µM

GUCCGGCAUGUAGGAUAUGGAUCCGAUUAGGAUUUAGAAGGACAUGAGGAUCACCCAUGUGCAUUUAAUUAGUCAUUACCGGAU [EXclNG1-LROPPY05] (Eterna round: R96, puzzle: Exclusion NG 1)
apparent KD of MS2 coat protein (input ligand: FMN 200 uM): 0.0174 µM | apparent KD of MS2 coat protein [2]: 0.0136 µM | apparent KD of MS2 coat protein (input ligand: none): 0.0179 µM

GUCCUCAUGGCGCCUAAACACAUGAGGAUCACCCAUGUACAGGCUUUUUGCCGUCUUAUAAUAAAACCGAGGAUGCG [Reanaor] (puzzle: Sensor v3, turn-off variant 1)
apparent KD of MS2 coat protein [3]: 0.103 µM | apparent KD of MS2 coat protein [1]: 0.157 µM | apparent KD of MS2 coat protein [4]: 0.148 µM

GUCGUACAUGAGGAUCACCCAUGUGAGGAUAUAGGUAGCAACCAGAAAUGGUUGCUACCUAGAAGGCGCAUGAU [Malcxlusion 10 - Jieux - Exclusion 1] (Eterna round: R97, puzzle: Exclusion 1)
apparent KD of MS2 coat protein (input ligand: FMN 200 uM): 0.529 µM | apparent KD of MS2 coat protein (input ligand: none): 0.104 µM

GUCGUACAUGAGGAUCACCCAUGUGAGGAUAUGGGCGGCGCCGCAAAAGCGGCGCCGCCCAGAAGGCGCAUGAU [Malcxlusion 6 - Jieux - Exclusion 1] (Eterna round: R97, puzzle: Exclusion 1)
apparent KD of MS2 coat protein (input ligand: FMN 200 uM): 0.234 µM | apparent KD of MS2 coat protein (input ligand: none): 0.0796 µM

GUCGUGCGGCAGUGCUGUACGAGUACAUGAGGAUCACCCAUGUAGGAUAUGGUUCGUUUUGCGUGCUAGAAGGGCGUGCGUUGG [Excl-NG3-LRO21] (Eterna round: R96, puzzle: Exclusion NG 3)
apparent KD of MS2 coat protein (input ligand: FMN 200 uM): 0.0193 µM | apparent KD of MS2 coat protein [2]: 0.0163 µM | apparent KD of MS2 coat protein (input ligand: none): 0.0214 µM

GUCGUGCGGCAGUGCUGUACGAGUACAUGAGGAUCACCCAUGUAGGAUAUGGUUCGUUUUGCGUGCUAGAAGGGCGUGCGUUUA [Excl-NG3-LRO19] (Eterna round: R96, puzzle: Exclusion NG 3)
apparent KD of MS2 coat protein (input ligand: FMN 200 uM): 0.0184 µM | apparent KD of MS2 coat protein [2]: 0.0182 µM | apparent KD of MS2 coat protein (input ligand: none): 0.0212 µM

GUCUACCAGCUAGGAUAUGCAGUACAUUAAAAUGUAGAAGGAGCACGAUCCAGACAUGAGGAUCACCCAUGUGGGCGGUAGGCA [Aques] (Eterna round: R96, puzzle: Exclusion NG 1)
apparent KD of MS2 coat protein [2]: 0.0156 µM

GUCUCGUCAGGAUAUGACGCUACAUUUUUUUUUUAGAAGAGUCAGAAGGGACAUGAGGAUCACCCAUGUGAUUC [Ex4 - 3 - 2] (puzzle: Exclusion 4)
apparent KD of MS2 coat protein [1]: 0.167 µM

GUCUUGAUAGGAUAUACAUGAGGAUCACCCAUGUCCCACCCGUUACCUCUGACCCUAUGUAGAAGGAUCGUCUG [Exy#18] (Eterna round: R97, puzzle: Exclusion 3)
apparent KD of MS2 coat protein (input ligand: FMN 200 uM): 0.0304 µM | apparent KD of MS2 coat protein (input ligand: none): 0.0355 µM

GUGCAGCUAGGAUAUACCGAAUGGGCCGAGCCGAAAAUAUUACAUGAGGAUCACCCAUGUAGAAGGAGCCAAUU [Eternabot (Original) Solution 22] (Eterna round: R97, puzzle: Exclusion 2)
apparent KD of MS2 coat protein (input ligand: FMN 200 uM): 0.0645 µM | apparent KD of MS2 coat protein (input ligand: none): 0.0347 µM

GUGCCGCGAGGAUAUACAGACGGGUCCAGUACGUGUCUUGGACUUGAGGAUCACCCAAGUAGAAGGCGUCUCAG [salish99_ex2_r4_612] (Eterna round: R97, puzzle: Exclusion 2)
apparent KD of MS2 coat protein (input ligand: FMN 200 uM): 0.0376 µM | apparent KD of MS2 coat protein (input ligand: none): 0.0489 µM
